Changes are numbered by the printed parent chain. Where no end group is shown, it is not given here. The star is where a group is joined. Biotin = O=C1N[C@H]2[C@H](CS[C@H]2CCCCC(=O)*)N1; Ahx = NCCCCCC(=O)O
T1: 1-14aa
T1 construct: also called alpha-synuclein peptide 1-14
T1 peptide: MDVFMKGLSKAKEG-biotin

T2: 10-24aa
T2 construct: also called alpha-synuclein peptide 10-24
T2 peptide: {Biotin-Ahx}-KAKEGVVAAAEKTKQ

T3: 46-60aa
T3 construct: also called alpha-synuclein peptide 46-60
T3 peptide: {Biotin-Ahx}-EGVVHGVATVAEKTK

T4: 82-96aa
T4 construct: also called alpha-synuclein peptide 82-96
T4 peptide: {Biotin-Ahx}-VEGAGSIAAATGFVK

T5: 91-105aa
T5 peptide: {Biotin-Ahx}-ATGFVKKDQLGKNEE

T6: 118-132aa
T6 peptide: {Biotin-Ahx}-VDPDNEAYEMPSEEG

T7: 1-15aa
T7 construct: also called alpha-synuclein peptide 1-15
T7 peptide: {Biotin-Ahx}-MDVFMKGLSKAKEGV

T8: 127-140aa
T8 peptide: {Biotin-Ahx}-MPSEEGYQDYEPEA

B1: ACI-7079-2501D10-Ab1 (antibody, V domains shown)
VH: EVQLVESGGGLVQPKGSLKVSCAASGFTFKTYAMHWVRQAPGKGLEWVARIRSENSNFAKYYADSVKDRFTISRDDSQSMLYLQMNNLKTEDTAMYYCVRGYNGSSLDYWGQGTTLTVSS
VL: QIVLTQSPAIMSAFPGERVTMTCSASSSVNYMHWYQQKSGTSPKRWIYDTSKLASGVPARFSGGGSGTSYSLTISNMEAEDAATYYCQQWRSNPPTFGGGTKLEIK
notes: mouse hybridoma mAb; VH/VL only; also called 2501D10C3
B2: ACI-27D8_4317A4 (bispecific antibody, V domains shown)
VH 1: EVQLVESGGGLVQPKGSLKLSCAASGFTFNTYAMNWVRQAPGKGLEWVARIRSKSNNFATYYADSVKDRFTISRDESESMLYLQMNNLKAEDTAMYYCVRSFDYWGQGTTLTVSS
VL 1: DIKMTQSPSSMYASLGERVTITCKASQDINSYLSWFQQKPGKSPKTLIYRAKRLVDGVPSRFSGSGSGQDYSLTISSLEYEDMGIYYCLQYDEFPFTFGSGTKLEIK
VH 2: EVQLQQSGAELVRPGASVKLSCTASGFNIKDDYMHWVKQRPEQGLEWIGWIDPENGDTEYASKFQGKATMTADTSSNTAYLQLSSLTSEDTAVYYCKTWGTTQALFPYWGQGTLVTVSA
VL 2: DIVMTQSQKFMYTSVGDRVSITCKASQNVGNAVGWYQQKAGQSPKLLIHSASNRYTGVPDRFTGTGSGTDFTLTINNMQSEDLADYFCQQYRSYPLTFGAGTKLELK
notes: biparatopic; Arm A ACI-8033-27D8-Ab1, Arm B ACI-7088-4317A4-Ab1; engineered constant domains not specified
B3: ACI-27D8_4301D5 (bispecific antibody, V domains shown)
VH 1: B2 VH 1
VL 1: B2 VL 1
VH 2: QVQLQQSGPELVRPGASVKISCKASGYRFTSYYIHWVKQRPGQGLEWIGWIYPGSDNTKHNDKFKGKATLTADTSSSTAYMQLSSLTSEDSAVYFCARDYDVGFGYWGQGTLVTVSS
VL 2: not shown
notes: biparatopic; Arm A ACI-8033-27D8-Ab1, Arm B ACI-7088-4301D5-Ab2; engineered constant domains not specified
B4: ACI-1108H1_4303A3 (bispecific antibody, V domains shown)
VH 1: EVKLVESGGGLVQPGGSMKLSCTASGFTFSDAWMNWVRQSPEKGLEWVAEIRNKAHNHATNYAESVKGRFTISGDDSKSSVYLQMNNLRAEDTGIYYCTIYSFWGQGTLVTVSA
VL 1: SIVMTQTPKFLLVSAGDRVTITCKASQSVTNYVAWYHQKPGQSPKLLIYSASNRYSGVPDRFTGSGYGTDFTFTINTVQTEDLAVYFCQQDYRIPYTFGGGTKLEIK
VH 2: QVQLQQSGAELVRPGASVTLSCKASGYTFTDYEMHWVKQTPVHGLEWIGVIDPETGGAVQNQKFKGKAILTADNSSSTAYMDLRSLTSEDSAVYNCAMGAALRLAYWGQGTLVTVSS
VL 2: DVLMTQTPLSLPVSLGDQASISCRSSQSIVHSNGNSYLEWYLQKPGQSPKLLIYKVSNRFSGVPDRFSGSGSGTDFTLKINRVEAEDLGVYYCFQGSHVPFTFGSGTKLEIK
notes: biparatopic; Arm A ACI-7067-1108H1-Ab1, Arm B ACI-7088-4303A3-Ab1; engineered constant domains not specified
B5: ACI-1101C8_4317A4 (bispecific antibody, V domains shown)
VH 1: EVQLVESGGGLVQPKGSLKLSCAASGFSFNIYAMNWVRQAPGKGLEWVARIRSKSNNYATYYADSVKDRFTISRADSESMLYLQMNNLKTEDTAMYYCVRVGLRFYAMDYWGQGTSVTVSS
VL 1: B4 VL 2 with S36T, N81S, H98Q, V99G, F101L, S105A, I111L
VH 2: B2 VH 2
VL 2: B2 VL 2
notes: biparatopic; Arm A ACI-7067-1101C8-Ab2, Arm B ACI-7088-4317A4-Ab1; engineered constant domains not specified
B6: ACI-1101C8_5A12 (bispecific antibody, V domains shown)
VH 1: B5 VH 1
VL 1: B4 VL 2 with S36T, N81S, H98Q, V99G, F101L, S105A, I111L
VH 2: QVHLKQSGADLVRPGASVKLSCKASGYTFTDYYINWVKQRPGQGLEWIARIYPGSGNTYYNEKFKGRATLSAEKSSTTAYMQLSSLTSEDSAVYFCVVGYYGAWGQGTTLTVSS
VL 2: DVVMTQTPLSLPVSLGDQASISCRSSQSLVHSNGKTHLHWYLQKPGQSPKLLIYKVSNRFSGVPDRFSGSGSGTDFTLKISRVEAEDLGVYFCSQSTHVPWTFGGGTKLEIK
notes: biparatopic; Arm A ACI-7067-1101C8-Ab2, Arm B ACI-8033-5A12-Ab1; engineered constant domains not specified
B7: ACI-1101C8_4301E12 (bispecific antibody, V domains shown)
VH 1: B5 VH 1
VL 1: B4 VL 2 with S36T, N81S, H98Q, V99G, F101L, S105A, I111L
VH 2: DVQLQESGPGLVKPSQSLSLTCSVTGYSITSGYYWNWIRQFPGNKLEWMGYISDDGSKNYNPSLKNRISITRDTSKNQLFMKLNSVTTEDTATYYCARGDSRLGQGTLVTVSA
VL 2: not shown
notes: biparatopic; Arm A ACI-7067-1101C8-Ab2, Arm B ACI-7088-4301E12-Ab2; engineered constant domains not specified
B8: ACI-4317A4_1113D10 (bispecific antibody, V domains shown)
VH 1: B2 VH 2
VL 1: B2 VL 2
VH 2: EVQLVESGGGLVQPKGSLKLSCAASGFTFNTYALHWVRQAPGKGLEWVARIRSKSSNYATYYADSVKDRFTISRDDSQSMLYLQMNNLKTEDTGMYYCVRGGVSPFDYWGQGTTLTVSS
VL 2: B1 VL with F14S, R18K, N30S, G64S, N76S, A82S, R91S, S92N
notes: biparatopic; Arm A ACI-7088-4317A4-Ab1, Arm B ACI-7067-1113D10-Ab1; engineered constant domains not specified
B9: ACI-3108C10_5A12 (bispecific antibody, V domains shown)
VH 1: ELQLVESGGGLVRPGGSLKLSCATSGFTFRNYAMSWVRQTPAKRLEWVATISDGGTYTFYSDNVKGRFTISRDNVKNTLYLQMSHLKSEDTAMYYCSRAGSGHWGQGTTLTVSS
VL 1: not shown
VH 2: B6 VH 2
VL 2: B6 VL 2
notes: biparatopic; Arm A ACI-7079-3108C10-Ab2, Arm B ACI-8033-5A12-Ab1; engineered constant domains not specified

Biological target: T1, 1-14aa
Experiment: indirect ELISA on biotinylated 15-mer peptide
Description: (§1) Serum-free supernatants were harvested from stable hybridomas. The supernatants containing antibodies of interest were then screened by an indirect ELISA assay to determine epitopes. Epitopes were first determined using a library of 15-mer peptides covering the entire sequence of human alpha-synuclein protein, spanning amino acids (aa) 1-140 with 9aa offset and […] overlap. […] Briefly, streptavidin-coated ELISA plates were blocked overnight at 4° C. […] Plates were washed with PBS/0.05% Tween®20 and then incubated with the hybridoma supernatants at 1/100 dilution for 1 hour at 25° C.

binding result | Binder
no binding (tested: supernatant 1/100) | B1

Biological target: T2, 10-24aa
Experiment: indirect ELISA on biotinylated 15-mer peptide
Description: as §1

binding result | Binder
no binding (tested: supernatant 1/100) | B1

Biological target: T3, 46-60aa
Experiment: indirect ELISA on biotinylated 15-mer peptide
Description: as §1

binding result | Binder
no binding (tested: supernatant 1/100) | B1

Biological target: T4, 82-96aa
Experiment: indirect ELISA on biotinylated 15-mer peptide
Description: as §1

binding result | Binder
no binding (tested: supernatant 1/100) | B1

Biological target: T5, 91-105aa
Experiment: indirect ELISA on biotinylated 15-mer peptide
Description: as §1

binding result | Binder
no binding (tested: supernatant 1/100) | B1

Biological target: T6, 118-132aa
Experiment: indirect ELISA on biotinylated 15-mer peptide
Description: as §1

binding result | Binder
no binding (tested: supernatant 1/100) | B1

Biological target: T7, 1-15aa
Experiment: indirect ELISA on biotinylated 15-mer peptide
Description: as §1

binding result | Binder
no binding (tested: supernatant 1/100) | B1

These binders were tested against T9, alpha-synuclein fibrils (UniProt P37840 1-140) (assay: SPR, captured bAb).
Description: (§2) Any non-covalently bound antibodies were removed by three successive regenerations of 10 mM Glycine pH 1.7 (GE Healthcare, 28-9950-84). Immobilization levels were evaluated following ethanolamine capping (Bound) and finally following regeneration (Final). Non-covalent immobilization of alpha-synuclein biparatopic antibodies on flow cell 2 of channels 1-8 was performed at a final concentration of 5 μg/mL, diluted in 10 mM sodium acetate pH 5.5 (GE Healthcare, BR-1003-52). Non-covalent immobilization of an isotype control antibody on flow cell 1 of channels 1-8 was performed at a final concentration of 5 μg/mL, diluted in 10 mM sodium acetate pH 5.5 (GE Healthcare, BR-1003-52).
(§3) Binding affinity of alpha-synuclein biparatopic antibodies to monomeric or fibrillar alpha-synuclein species was performed using a single-cycle kinetics method. The instrument was primed with 1×HBS-P+ buffer (10× stock from GE Healthcare, BR-1003-52 diluted in Milli-Q water). Injections of monomeric alpha-synuclein (Boston Biochem, SP-485), increasing in concentration from 0.62-50 nM prepared from serial 2-fold dilutions, were performed with contact times of 300 sec/injection at a flow rate of 30 μL/min. A dissociation phase of 900 sec followed the final 50 nM injection. Regeneration of the sensor to the goat anti-human antibody layer was achieved using 3 regenerations of 10 mM Glycine pH 1.7. […] Regeneration of the sensor to the goat anti-mouse antibody layer was achieved using 3 regenerations of 10 mM Glycine pH 1.7. Results obtained from single-cycle kinetics were evaluated by Biacore 8K evaluation software with 1:1 binding homogenous Langmuir model with a preceeding buffer injection as a blank subtraction. The following kinetic parameters were obtained: on-rate (ka), off-rate (kd), affinity constant (KD, ratio of kd by ka), maximum response (Rmax), and goodness of fit (Chi2).
(§4) Kinetic constants were determined from 1:1 homogenous binding models for all cases.

koff | kon | Binder
5.8e-05 s⁻¹ | 65400 M⁻¹ s⁻¹ | B2
0.000219 s⁻¹ | 13100 M⁻¹ s⁻¹ | B3
1.49e-05 s⁻¹ | 73600 M⁻¹ s⁻¹ | B4
3e-05 s⁻¹ | 69300 M⁻¹ s⁻¹ | B5
6.13e-05 s⁻¹ | 46700 M⁻¹ s⁻¹ | B6
9.65e-07 s⁻¹ | 44900 M⁻¹ s⁻¹ | B7
7.77e-06 s⁻¹ | 49200 M⁻¹ s⁻¹ | B8
0.000113 s⁻¹ | 10500 M⁻¹ s⁻¹ | B9

Each binder was assayed against T10, monomeric alpha-synuclein (UniProt P37840 1-140) (assay: SPR, captured bAb).
Description: as §2, §3, §4

koff | kon | Binder
0.0283 s⁻¹ | 7.94e+06 M⁻¹ s⁻¹ | B2
0.147 s⁻¹ | 1.37e+06 M⁻¹ s⁻¹ | B3
0.00129 s⁻¹ | 1.43e+06 M⁻¹ s⁻¹ | B4
0.00158 s⁻¹ | 2.35e+06 M⁻¹ s⁻¹ | B5
0.0042 s⁻¹ | 1.1e+06 M⁻¹ s⁻¹ | B6
0.000444 s⁻¹ | 224000 M⁻¹ s⁻¹ | B7
0.000675 s⁻¹ | 1.39e+06 M⁻¹ s⁻¹ | B8
8.05 s⁻¹ | 9.13e+08 M⁻¹ s⁻¹ | B9

Biological target: T8, 127-140aa
Experiment: indirect ELISA on biotinylated 15-mer peptide, supernatant 1/100
Description: as §1

binding result | Binder
binds | B1

What follows are binders tested against T9, alpha-synuclein fibrils (assay: SPR, captured bAb; head says nM, kd/ka gives M).
Description: as §2, §3, §4

Kd | Binder
0.887 nM | B2
16.7 nM | B3
0.203 nM | B4
0.433 nM | B5
1.31 nM | B6
0.0215 nM | B7
0.158 nM | B8
10.8 nM | B9

The binders below were run against T10, monomeric alpha-synuclein (assay: SPR, captured bAb; head says nM, kd/ka gives M).
Description: as §2, §3, §4

Kd | Binder
3.57 nM | B2
107 nM | B3
0.903 nM | B4
0.671 nM | B5
3.82 nM | B6
1.98 nM | B7
0.486 nM | B8
8.82 nM | B9
